Reference: US20230129812A1 (ACCELERON PHARMA, published 2023)
Changes are numbered by the printed parent chain. Names and notes keep the numbering of the source.

T1: activin A (UniProt P08476 311-426)
T1 construct: also called ActA
T1 sequence (looked up): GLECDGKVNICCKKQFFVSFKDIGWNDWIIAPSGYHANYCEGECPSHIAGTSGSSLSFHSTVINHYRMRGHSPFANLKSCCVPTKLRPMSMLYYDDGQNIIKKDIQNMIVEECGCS

T2: GDF8 (UniProt O14793 267-375)
T2 construct: also called myostatin
T2 sequence (looked up): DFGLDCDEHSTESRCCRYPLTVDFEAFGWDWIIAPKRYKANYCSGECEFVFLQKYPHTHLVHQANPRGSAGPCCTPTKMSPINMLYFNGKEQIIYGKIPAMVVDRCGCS

T3: BMP6 (UniProt P22004 375-513, limits assumed)
T3 sequence (looked up): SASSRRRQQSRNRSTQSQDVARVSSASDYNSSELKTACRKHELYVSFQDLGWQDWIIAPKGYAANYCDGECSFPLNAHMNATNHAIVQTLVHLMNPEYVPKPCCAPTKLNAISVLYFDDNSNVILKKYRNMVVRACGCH

T4: Soluble ActRIIB-Fc +15tail (Homo sapiens (Human), UniProt Q13705 19-134)
T4 construct: not shown: linker and Fc
T4 sequence (looked up): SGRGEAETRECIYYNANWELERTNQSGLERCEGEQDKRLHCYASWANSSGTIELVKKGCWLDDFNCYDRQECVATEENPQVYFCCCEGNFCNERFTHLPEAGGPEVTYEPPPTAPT

T5: GDF3 (UniProt Q9NR23 251-364)
T5 construct: also called VGR2
T5 sequence (looked up): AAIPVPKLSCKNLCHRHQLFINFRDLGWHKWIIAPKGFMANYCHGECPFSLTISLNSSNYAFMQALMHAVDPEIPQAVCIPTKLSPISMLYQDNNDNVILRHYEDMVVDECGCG

T6: activin B (UniProt P09529 293-407)
T6 sequence (looked up): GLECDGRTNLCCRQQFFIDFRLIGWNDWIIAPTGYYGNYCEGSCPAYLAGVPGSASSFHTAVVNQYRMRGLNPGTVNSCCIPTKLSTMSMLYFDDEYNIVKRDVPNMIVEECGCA

T7: BMP9 (UniProt Q9UK05 320-429)
T7 construct: also called GDF2
T7 sequence (looked up): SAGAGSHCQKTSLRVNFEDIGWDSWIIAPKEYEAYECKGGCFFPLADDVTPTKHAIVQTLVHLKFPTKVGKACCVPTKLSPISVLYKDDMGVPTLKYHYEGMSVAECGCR

B1: BMP10 (ligand, UniProt O95393 317-424, looked up)
chain: NAKGNYCKRTPLYIDFKEIGWDSWIIAPPGYEAYECRGVCNYPLAEHLTPTKHAIIQALVHLKNSQKASKACCVPTKLEPISILYLDKGVVTYKFKYEGMAVSECGCR
B2: Soluble ActRIIB-Fc D54A (Table 11) (Fc fusion, UniProt Q13705 19-119, looked up, not shown: a dimerising Fc or GST)
chain: SGRGEAETRECIYYNANWELERTNQSGLERCEGEQAKRLHCYASWANSSGTIELVKKGCWLDDFNCYDRQECVATEENPQVYFCCCEGNFCNERFTHLPEA
B3: Soluble ActRIIB-Fc F82A (Table 11) (Fc fusion, UniProt Q13705 19-119, looked up, not shown: a dimerising Fc or GST)
chain: B2 chain with A36D, F64A
B4: Soluble ActRIIB-Fc R40A (Table 11) (Fc fusion, UniProt Q13705 19-119, looked up, not shown: a dimerising Fc or GST)
chain: B2 chain with R22A, A36D
B5: Soluble ActRIIB-Fc L79A (Table 11) (Fc fusion, UniProt Q13705 19-119, looked up, not shown: a dimerising Fc or GST)
chain: B2 chain with A36D, L61A
B6: ActRIIB(L79D 25-131)-hFc (Fc fusion)
chain: ETRECIYYNANWELERTNQSGLERCEGEQDKRLHCYASWRNSSGTIELVKKGCWDDDFNCYDRQECVATEENPQVYFCCCEGNFCNERFTHLPEAGGPEVTYEPPPTGGGTHTCPPCPAPELLGGPSVFLFPPKPKDTLMISRTPRVTCVVVDVSHEDPEVKFNWYVDGVEVHNAKTKPREEQYNSTYRVVSVLTVLHQDWLNGKEYKCKVSNKALPAPIEKTISKAKGQPREPQVYTLPPSREEMTKNQVSLTCLVKGFYPSDIAVEWESNGQPENNYKTTPPVLDSDGSFFLYSKLTVDKSRWQQGNVFSCSVMHEALHNHYTQKSLSLSPGK
B7: GDF11 (ligand, UniProt O95390 299-407, looked up)
chain: NLGLDCDEHSSESRCCRYPLTVDFEAFGWDWIIAPKRYKANYCSGQCEYMFMQKYPHTHLVQQANPRGSAGPCCTPTKMSPINMLYFNDKQQIIYGKIPGMVVDRCGCS
notes: also called BMP11
B8: ALK4-Fc:ActRIIB-Fc heterodimer (Fc fusion)
chain 1: GRGEAETRECIYYNANWELERTNQSGLERCEGEQDKRLHCYASWRNSSGTIELVKKGCWLDDFNCYDRQECVATEENPQVYFCCCEGNFCNERFTHLPEAGGPEVTYEPPPTAPTGGGTHTCPPCPAPELLGGPSVFLFPPKPKDTLMISRTPEVTCVVVDVSHEDPEVKFNWYVDGVEVHNAKTKPREEQYNSTYRVVSVLTVLHQDWLNGKEYKCKVSNKALPAPIEKTISKAKGQPREPQVYTLPPSRKEMTKNQVSLTCLVKGFYPSDIAVEWESNGQPENNYKTTPPVLKSDGSFFLYSKLTVDKSRWQQGNVFSCSVMHEALHNHYTQKSLSLSPGK
chain 2: SGPRGVQALLCACTSCLQANYTCETDGACMVSIFNLDGMEHHVRTCIPKVELVPAGKPFYCLSSEDLRNTHCCYTDYCNRIDLRVPSGHLKEPEHPSMWGPVETGGGTHTCPPCPAPELLGGPSVFLFPPKPKDTLMISRTPEVTCVVVDVSHEDPEVKFNWYVDGVEVHNAKTKPREEQYNSTYRVVSVLTVLHQDWLNGKEYKCKVSNKALPAPIEKTISKAKGQPREPQVYTLPPSREEMTKNQVSLTCLVKGFYPSDIAVEWESNGQPENNYDTTPPVLDSDGSFFLYSDLTVDKSRWQQGNVFSCSVMHEALHNHYTQKSLSLSPG
notes: The receptor parts are the same in all three; also called ALK4-Fc:ActRIIB-Fc heterodimeric complex; ALK4:ActRIIB heterodimer

Experiments:
[1] = molecular target: T8, ActRIIA-mFc (human, UniProt P27037 21-135); assay: SPR (Biacore), similar binding assay
T8 construct: not shown: minimal linker and mouse Fc domain
T8 sequence (P27037 21-135): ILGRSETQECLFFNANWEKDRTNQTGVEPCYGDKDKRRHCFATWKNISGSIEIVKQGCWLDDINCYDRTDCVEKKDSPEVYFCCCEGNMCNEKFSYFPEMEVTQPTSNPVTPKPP
Description: GDF11 or activin A were immobilized on a Biacore™ CM5 chip using standard amine-coupling procedure. ActRIIA-hFc and ActRIIA-mFc proteins were loaded onto the system, and binding was measured. […] Using a similar binding assay, ActRIIA-hFc was determined to have high to moderate affinity for other TGF-beta superfamily ligands including, for example, activin B, GDF8, BMP6, and BMP10. ActRIIA-mFc behaved similarly.

[2] = molecular target: B7; assay: SPR (Biacore); ligand coupled, receptor flowed over (as reported in WO2006/012627)
Excerpt: (§1) Other variants have been generated and tested, as reported in WO2006/012627 (incorporated herein by reference in its entirety). See, e.g., pp. 59-60, using ligands coupled to the device and flowing receptor over the coupled ligands. […] Table 11 showing data with respect to these variants is reproduced below: […]

[3] = molecular target: T1, activin A; assay: SPR (Biacore); ligand coupled, receptor flowed over (as reported in WO2006/012627); - means ~1/2 WT binding
Excerpt: as §1

[4] = molecular target: B7; assay: as above
Excerpt: as §1

[5] = molecular target: T1, activin A; assay: SPR (Biacore); ligand coupled, receptor flowed over (as reported in WO2006/012627); + means WT
Excerpt: as §1

[6] = molecular target: T2, GDF8; assay: SPR (Biacore)
[7] = molecular target: B1; assay: SPR (Biacore)
[8] = molecular target: T3, BMP6; assay: SPR (Biacore)
[9] = molecular target: T4, Soluble ActRIIB-Fc +15tail; assay: SPR (Biacore); ligand coupled, receptor flowed over (as reported in WO2006/012627)
Excerpt: as §1

[10] = molecular target: T8, ActRIIA-mFc; assay: SPR (Biacore); ligand amine-coupled to CM5 chip, receptor-Fc injected
[11] = molecular target: T2, GDF8; assay: SPR (Biacore); receptor-Fc captured by anti-Fc antibody, ligand injected
Description: (§2) A Biacore™-based binding assay was used to compare ligand binding selectivity of the ALK4-Fc:ActRIIB-Fc heterodimeric complex described above with that of ActRIIB-Fc and ALK4-Fc homodimer complexes. The ALK4-Fc:ActRIeB-Fc heterodimer, […], and ALK4-Fc homodimer were independently captured onto the system using an anti-Fc antibody. Ligands were injected and allowed to flow over the captured receptor protein. Results are summarized in Table 13 below, in which ligand off-rates (kd) most indicative of effective polypeptides are denoted in bold.

[12] = molecular target: B1; assay: as above
Description: as §2

[13] = molecular target: T5, GDF3; assay: as above
Description: as §2

[14] = molecular target: T6, activin B; assay: as above
Description: as §2

[15] = molecular target: B7; assay: as above
Description: as §2

[16] = molecular target: T7, BMP9; assay: as above
Description: as §2

[17] = molecular target: T1, activin A; assay: as above
Description: as §2

[18] = molecular target: T3, BMP6; assay: as above
Description: as §2

Binder: B1
binding result [1]: binds

Binder: B2
binding result [2]: no binding | binding result [3]: binds

Binder: B3
binding result [4]: binds

Binder: B4
binding result [4]: binds | binding result [3]: binds

Binder: B5
binding result [2]: no binding | binding result [5]: binds

Binder: B6
binding result [6]: binds | binding result [7]: binds | binding result [8]: binds

Binder: B7
Kd [9]: 19 nM | binding result [10]: binds

Binder: B8
Kd [11]: 0.55 nM | koff [11]: 0.00021 s⁻¹ | kon [11]: 390000 M⁻¹ s⁻¹ | Kd [12]: 0.074 nM | koff [12]: 0.0041 s⁻¹ | kon [12]: 5.6e+07 M⁻¹ s⁻¹ | Kd [13]: 4.9 nM | koff [13]: 0.017 s⁻¹ | kon [13]: 3.4e+06 M⁻¹ s⁻¹ | Kd [14]: 0.006 nM | koff [14]: 4e-05 s⁻¹ | kon [14]: 7.1e+06 M⁻¹ s⁻¹ | Kd [15]: 0.003 nM | koff [15]: 0.00011 s⁻¹ | kon [15]: 3.8e+07 M⁻¹ s⁻¹ | Kd [16]: 3.4 nM | Kd [17]: 0.012 nM | koff [17]: 0.00015 s⁻¹ | kon [17]: 1.3e+07 M⁻¹ s⁻¹ | Kd [18]: 2.7 nM | koff [18]: 0.0055 s⁻¹ | kon [18]: 2e+06 M⁻¹ s⁻¹
